Experiment [1] concerns the target porcine aminopeptidase N ectodomain, wild type (pig) (UniProt P15145). In words: SPR; BIAcore X-100, room temperature; hAPN/pAPN WT or mutant immobilised on CM5 chips via amine coupling; serially diluted PDCoV RBD WT or mutant flowed over in HEPES buffer (0.01 M HEPES, 0.15 M NaCl, 0.5% surfactant P20, 3 mM EDTA, pH 7.4); steady-state affinity model; each of two experiments listed. (In general: Surface plasmon resonance follows binding to a sensor surface in real time, without labels.)

The target of experiment [2] is human aminopeptidase N ectodomain, wild type (human) (UniProt P15144). The description is as above.
human aminopeptidase N ectodomain, wild type (human), sequence (P15144 62-963): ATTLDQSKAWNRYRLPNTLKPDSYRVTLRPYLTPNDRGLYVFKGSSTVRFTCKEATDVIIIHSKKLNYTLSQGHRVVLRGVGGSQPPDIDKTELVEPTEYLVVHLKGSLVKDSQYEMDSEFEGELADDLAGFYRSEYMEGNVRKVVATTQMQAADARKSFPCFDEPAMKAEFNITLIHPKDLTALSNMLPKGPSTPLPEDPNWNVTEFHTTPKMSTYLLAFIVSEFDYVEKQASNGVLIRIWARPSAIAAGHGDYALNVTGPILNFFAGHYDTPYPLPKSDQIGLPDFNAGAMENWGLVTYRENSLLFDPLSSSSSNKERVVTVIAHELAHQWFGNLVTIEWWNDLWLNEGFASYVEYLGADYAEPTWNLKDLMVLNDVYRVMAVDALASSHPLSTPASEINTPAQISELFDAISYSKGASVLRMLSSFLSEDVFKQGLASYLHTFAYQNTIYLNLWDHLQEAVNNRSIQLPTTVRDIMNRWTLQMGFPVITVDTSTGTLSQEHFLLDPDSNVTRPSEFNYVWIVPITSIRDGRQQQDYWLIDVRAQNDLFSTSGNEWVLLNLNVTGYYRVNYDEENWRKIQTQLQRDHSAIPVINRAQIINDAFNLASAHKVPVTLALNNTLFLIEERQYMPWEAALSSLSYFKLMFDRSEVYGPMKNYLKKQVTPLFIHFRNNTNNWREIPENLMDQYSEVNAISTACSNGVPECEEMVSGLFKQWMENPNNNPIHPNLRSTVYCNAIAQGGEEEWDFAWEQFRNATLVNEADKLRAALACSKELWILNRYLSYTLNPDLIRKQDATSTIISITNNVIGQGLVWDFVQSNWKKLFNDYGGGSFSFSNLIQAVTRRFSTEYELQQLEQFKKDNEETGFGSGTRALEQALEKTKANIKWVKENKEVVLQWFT
Experiment [3] concerns the target hAPN ectodomain Y316A mutant (human) (UniProt P15144). Kind of experiment: SPR; BIAcore X-100, room temperature; hAPN/pAPN WT or mutant immobilised on CM5 chips by amine coupling; serially diluted PDCoV RBD WT or mutant flowed over in HEPES buffer (0.01 M HEPES, 0.15 M NaCl, 0.5% surfactant P20, 3 mM EDTA, pH 7.4); steady-state affinity model.
Experiment [4] deals with human aminopeptidase N (hAPN) ectodomain, residues 62-963, wild type (UniProt P15144). The experiment is described as above.
human aminopeptidase N (hAPN) ectodomain, residues 62-963, wild type, sequence (P15144 62-963): as above
For experiment [5], the target named is hAPN ectodomain E742A mutant (human) (UniProt P15144). Described as above.
hAPN ectodomain E742A mutant (human), sequence (P15144 62-963 E742A): as the sequence (P15144 62-963) above, with E681A counted along it
Experiment [6] addresses hAPN ectodomain K379A mutant (human) (UniProt P15144). The experiment is described as above.
Experiment [7] concerns the target porcine aminopeptidase N (pAPN) ectodomain, residues 58-961, wild type (pig) (UniProt P15145). The description is as above.
Experiment [8] concerns the target human aminopeptidase N (hAPN) ectodomain, residues 62-963, wild type (UniProt P15144). In words: SPR. The conditions noted are these: parent: 3.71 ± 0.05 µM.
Experiment [9] has as its target porcine aminopeptidase N (pAPN) ectodomain, residues 58-961, wild type (UniProt P15145). In words: SPR. The conditions noted are these: parent: 44.24 ± 2.21 µM.
Experiment [10] has as its target porcine aminopeptidase N ectodomain, wild type (pig) (UniProt P15145). In words: SPR; hAPN/pAPN WT or mutant immobilised on CM5 chips by amine coupling; serially diluted PDCoV RBD WT or mutant flowed over; BIAcore X-100, room temperature; 0.01 M HEPES, 0.15 M NaCl, 0.5% surfactant P20, 3 mM EDTA, pH 7.4; steady-state affinity model.
Experiment [11] concerns the target human aminopeptidase N ectodomain, wild type (human) (UniProt P15144). Described as above.
Experiment [12] has as its target porcine aminopeptidase N ectodomain, wild type (pig) (UniProt P15145). Described as above. The source holds these as a separate data set.
Experiment [13] deals with human aminopeptidase N ectodomain, wild type (human) (UniProt P15144). Described as above. This is another data set of the same source.
Experiment [14] concerns the target human aminopeptidase N ectodomain E742A (human) (UniProt P15144). The experiment is described as above.
The target of experiment [15] is human aminopeptidase N ectodomain W429A (human) (UniProt P15144). The description is as above.
human aminopeptidase N ectodomain W429A (human), sequence (P15144 62-963 W429A): as the sequence (P15144 62-963) above, with W368A counted along it
Experiment [16] deals with human aminopeptidase N ectodomain K379A (human) (UniProt P15144). The description is as above.
human aminopeptidase N ectodomain K379A (human), sequence (P15144 62-963 K379A): as the sequence (P15144 62-963) above, with K318A counted along it
Experiment [17] has as its target human aminopeptidase N ectodomain E745A (human) (UniProt P15144). Described as above.
Experiment [18] deals with porcine aminopeptidase N ectodomain E421A (pig) (UniProt P15145). The description is as above.
porcine aminopeptidase N ectodomain E421A (pig), sequence (P15145 58-961 E421A): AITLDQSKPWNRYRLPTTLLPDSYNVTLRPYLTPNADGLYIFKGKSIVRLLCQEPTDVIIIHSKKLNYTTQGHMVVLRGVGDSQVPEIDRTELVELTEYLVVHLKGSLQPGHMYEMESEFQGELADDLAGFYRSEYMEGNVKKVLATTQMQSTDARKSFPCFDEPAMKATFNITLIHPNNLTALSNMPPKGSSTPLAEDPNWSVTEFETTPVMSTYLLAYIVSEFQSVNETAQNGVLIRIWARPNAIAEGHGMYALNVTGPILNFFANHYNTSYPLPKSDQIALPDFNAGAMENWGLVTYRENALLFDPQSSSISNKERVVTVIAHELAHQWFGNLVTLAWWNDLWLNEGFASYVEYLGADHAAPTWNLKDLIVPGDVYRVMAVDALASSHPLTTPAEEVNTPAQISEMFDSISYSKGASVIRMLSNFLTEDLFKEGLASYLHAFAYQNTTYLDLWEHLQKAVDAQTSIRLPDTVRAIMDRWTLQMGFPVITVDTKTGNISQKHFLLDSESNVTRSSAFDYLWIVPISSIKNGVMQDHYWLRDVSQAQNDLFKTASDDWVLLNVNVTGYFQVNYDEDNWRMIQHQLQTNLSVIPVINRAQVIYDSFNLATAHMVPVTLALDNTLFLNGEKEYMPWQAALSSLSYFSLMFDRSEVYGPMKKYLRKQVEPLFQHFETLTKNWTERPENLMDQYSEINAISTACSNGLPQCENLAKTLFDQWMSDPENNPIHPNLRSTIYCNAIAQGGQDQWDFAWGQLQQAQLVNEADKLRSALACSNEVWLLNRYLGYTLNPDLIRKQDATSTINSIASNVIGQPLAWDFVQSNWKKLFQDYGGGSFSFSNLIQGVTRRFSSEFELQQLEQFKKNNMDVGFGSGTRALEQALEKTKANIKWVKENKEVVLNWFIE
Experiment [19] has as its target human aminopeptidase N ectodomain Y316A (human) (UniProt P15144). The description is as above.
Experiment [20] deals with porcine aminopeptidase N ectodomain W424A (pig) (UniProt P15145). The experiment is described as above.
porcine aminopeptidase N ectodomain W424A (pig), sequence (P15145 58-961 W424A): as the sequence (P15145 58-961 E421A) above, with A364E, W367A counted along it
The target in experiment [21] is human aminopeptidase N ectodomain H789A (human) (UniProt P15144). The experiment is described as above.
human aminopeptidase N ectodomain H789A (human), sequence (P15144 62-963 H789A): as the sequence (P15144 62-963) above, with H728A counted along it
Experiment [22] has as its target human aminopeptidase N ectodomain E426A (human) (UniProt P15144). The description is as above.

“And” between values parts separate entries of the source, which are not always exact repeats. Equal entries are not always repeated.

Data on 22 substances can be found in publication PMC8933513 (2022).

By Kd is commonly meant the constant that tells how readily two partners part at equilibrium.

porcine aminopeptidase N (pAPN) ectodomain, residues 58-961, wild type, sequence (P15145 58-961): as the sequence (P15145 58-961 E421A) above, with A364E counted along it
porcine aminopeptidase N ectodomain, wild type (pig), sequence (P15145 58-961): as the sequence (P15145 58-961 E421A) above, with A364E counted along it
human aminopeptidase N ectodomain E745A (human), sequence (P15144 62-963 E745A): as the sequence (P15144 62-963) above, with E684A counted along it
human aminopeptidase N ectodomain E742A (human), sequence (P15144 62-963 E742A): as the sequence (P15144 62-963) above, with E681A counted along it
human aminopeptidase N ectodomain Y316A (human), sequence (P15144 62-963 Y316A): as the sequence (P15144 62-963) above, with Y255A counted along it
human aminopeptidase N ectodomain E426A (human), sequence (P15144 62-963 E426A): as the sequence (P15144 62-963) above, with E365A counted along it
porcine aminopeptidase N (pAPN) ectodomain, residues 58-961, wild type (pig), sequence (P15145 58-961): as the sequence (P15145 58-961 E421A) above, with A364E counted along it
hAPN ectodomain Y316A mutant (human), sequence (P15144 62-963 Y316A): as the sequence (P15144 62-963) above, with Y255A counted along it
hAPN ectodomain K379A mutant (human), sequence (P15144 62-963 K379A): as the sequence (P15144 62-963) above, with K318A counted along it

Turning to PDCoV RBD E320A (domain or fragment), the dissociation constant Kd in experiment [1] is 279 µM and 220 µM; in experiment [2] it was 135 µM and 188 µM.

Consider PDCoV RBD F318A (domain or fragment), for which the dissociation constant (Kd) was 817 µM and 511 µM in experiment [1]; 112 µM and 154 µM in experiment [2].

As for PDCoV RBD N397A (domain or fragment), the dissociation constant Kd in experiment [1] is 34 µM and 53.8 µM; in experiment [2], 3.35 µM and 3.62 µM.

Turning to PDCoV RBD R322A (domain or fragment), the Kd in experiment [1] was 454 µM and 553 µM; in [2] it was 256 µM and 335 µM.

For the substance PDCoV RBD R357A (domain or fragment), the dissociation constant Kd in experiment [1] is 27.7 µM and 60.5 µM; in experiment [2], 199 µM and 232 µM.

Take PDCoV RBD W396A (domain or fragment): in experiment [2], the equilibrium dissociation constant (Kd) is 88000 µM.

PDCoV RBD Y398A (domain or fragment): the dissociation constant (Kd) in experiment [2] was 309 µM and 730 µM.

In the case of “PDCoV spike (S) protein receptor binding domain (RBD), residues 300-419, wild type (domain or fragment)”, the fold decrease in affinity against wild-type hAPN in experiment [3] is 10 fold; in experiment [5], 4 fold. For the same substance, the Kd in experiment [4] was 1 µM; in experiment [6], 100 µM. The substance further gave a fold lower affinity than to hAPN in experiment [7] of 10 fold.

For “PDCoV spike (S) protein receptor binding domain (RBD), residues 300-419, wild type E320A”, the Kd was 161 µM in [8] and 249 µM in experiment [9].

As to “PDCoV spike (S) protein receptor binding domain (RBD), residues 300-419, wild type F318A”, the Kd in [8] turned out to be 133 µM; in experiment [9], 664 µM.

Regarding “PDCoV spike (S) protein receptor binding domain (RBD), residues 300-419, wild type N397A”, the Kd in experiment [8] is 3.49 µM.

In the case of “PDCoV spike (S) protein receptor binding domain (RBD), residues 300-419, wild type R322A”, the equilibrium dissociation constant (Kd) in experiment [8] worked out at 295 µM; in [9] it was 504 µM.

Consider “PDCoV spike (S) protein receptor binding domain (RBD), residues 300-419, wild type R357A”, for which the Kd in experiment [8] came out at 216 µM.

With “PDCoV spike (S) protein receptor binding domain (RBD), residues 300-419, wild type Y398A”, the dissociation constant (Kd) in experiment [8] was 520 µM.

“PDCoV spike protein receptor binding domain E320A (domain or fragment)”: the Kd in experiment [10] is 279 µM and 220 µM; in [11], 135 µM and 188 µM.

As to “PDCoV spike protein receptor binding domain F318A (domain or fragment)”, the Kd is 817 µM and 511 µM in [10]; 112 µM and 154 µM in [11].

Turning to “PDCoV spike protein receptor binding domain N397A (domain or fragment)”, the Kd in experiment [10] is 34 µM and 53.8 µM; in [11] it was 3.35 µM and 3.62 µM.

Take “PDCoV spike protein receptor binding domain R322A (domain or fragment)”: the dissociation constant Kd was 454 µM and 553 µM in experiment [10]; 256 µM and 335 µM in [11].

Take “PDCoV spike protein receptor binding domain R357A (domain or fragment)”: the dissociation constant Kd is 27.7 µM and 60.5 µM in experiment [10]; 199 µM and 232 µM in [11].

Take “PDCoV spike protein receptor binding domain W396A (domain or fragment)”: the Kd in experiment [11] was 88000 µM; in [12], > 1000 µM; in experiment [13] it was > 1000 µM.

“PDCoV spike protein receptor binding domain Y398A (domain or fragment)”: the Kd in experiment [11] is 309 µM and 730 µM; in experiment [12], > 1000 µM.

For the substance “PDCoV spike protein receptor binding domain, wild type (domain or fragment)”, the dissociation constant Kd is 42 µM and 46.5 µM in experiment [10]; 3.76 µM and 3.66 µM in [11]; 14.3 µM and 13.2 µM in experiment [14]; 158 µM and 97 µM in experiment [15]; 371 µM and 516 µM in experiment [16]; 3.13 µM and 3 µM in [17]. For the same substance, the dissociation constant Kd in [18] was 103 µM and 146 µM; in experiment [19], 35.7 µM and 38.5 µM; in experiment [20], 113 µM and 119 µM; in experiment [21], 6.47 µM and 6.03 µM; in experiment [22], 305 µM and 362 µM.
